A word on the Km: it is the substrate concentration at which the rate is half of its maximum.

Substrate in this data set: O=P(O)(O)OC[C@H]1OC(O)[C@@H](O)[C@@H](O)[C@@H]1O
The experiment in a line: purified protein. To be noted: 0.5 mM Co2+ (general method), phosphate pH 7.5, 50 °C. The class given is biochemical, Bacillus amyloliquefaciens.

B1: BsM6PI (Bacillus subtilis subsp. subtilis str. 168; K96Q) (protein)
chain: MTQSPIFLTPVFKEKIWGGTALRDRFGYSIPSESTGECWAISAHPKGPSTVANGPYKGKTLIELWEEHREVFGGVEGDRFPLLTKLLDVKEDTSIQVHPDDYYAGENEEGELGKTECWYIIDCKENAEIIYGHTARSKTELVTMINSGDWEGLLRRIKIKPGDFYYVPSGTLHALCKGALVLETQQNSDATYRVYDYDRLDSNGSPRELHFAKAVNAATVPHVDGYIDESTESRKGITIKTFVQGEYFSVYKWDINGEAEMAQDESFLICSVIEGSGLLKYEDKTCPLKKGDHFILPAQMPDFTIKGTCTLIVSHI
notes: full length, N-terminal His6 fusion (pET28a, BamHI/SalI), E. coli BL21(DE3), Ni-NTA; primers encode N-terminus MTQS and C-terminus IVSHI
As to B1, the Km is 12 mM.
